Measured values: patent US10913781B2, “Pepducin design and use” (Tufts Medical Center, Inc., priority 2011, dated 2021)
Read-outs that look alike come from different tables or passages of the source. Peptide text beside a SMILES is read from it. * marks the point of attachment. Palmitoyl = CCCCCCCCCCCCCCCC(=O)*

What was measured:
[1] = molecular target: T1, PAR1 (Homo sapiens, UniProt P25116); experiment: ERK1/2 phosphorylation in A549 cells (thrombin or […]), Western blot; assay type: cell-based; parameters: endogenous in cells; host or cells: A549, HOP62, H1299, H522, H226, HOP92 lung carcinoma lines; details: A549 cells; pepducin 0.1-3 μM
T1 sequence (P25116 22-425): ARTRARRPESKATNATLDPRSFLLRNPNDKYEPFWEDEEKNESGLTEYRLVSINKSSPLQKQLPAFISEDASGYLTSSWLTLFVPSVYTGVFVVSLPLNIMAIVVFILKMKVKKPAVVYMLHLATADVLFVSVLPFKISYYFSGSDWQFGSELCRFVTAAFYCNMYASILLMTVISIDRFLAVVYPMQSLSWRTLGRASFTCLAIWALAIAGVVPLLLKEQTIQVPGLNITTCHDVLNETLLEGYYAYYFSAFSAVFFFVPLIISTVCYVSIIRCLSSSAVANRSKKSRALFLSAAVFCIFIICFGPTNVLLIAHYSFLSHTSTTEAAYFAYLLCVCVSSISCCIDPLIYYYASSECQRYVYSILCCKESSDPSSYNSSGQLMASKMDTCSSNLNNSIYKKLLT
Method: FIG. 9 illustrates that differential inhibition of PAR1-ERK activation by i3- and i1-derived PAR1 pepducins. (A-C): Western blots of lysates from A549 cells untreated, or treated with thrombin, SLIGKV (SEQ ID NO:29), or AYPGKF (SEQ ID NO:5). Indicated samples were pretreated with various concentrations (0.1 to 3 μmol/L) of P1pal-7, P1pal-10S, or P1pal-i1-11 before stimulation and immunoblotted with anti-phospho-ERK. (D-F): Quantification of the Western blots in (A-C) were conducted by densitometry and results are expressed relative to maximum (fold max) phosphorylation of pERK.
(B): A549 cells stimulated with 10 μM […] over 2 h. A549 cells pretreated with 0.1 μM P1pal-7 and stimulated with 10 μM […] (SEQ ID NO:30) for 5 min. Total ERK was used as a loading control.
Last, there has been a great deal of interest in understanding the mechanism of PAR1-mediated activation of MAP kinase cascade and PAR1-dependent cellular growth and differentiation, proliferation and gene transcription. […] The effects of i1 versus i3 PAR1 pepducins on ERK1/2 activation were examined in the A549 lung adenocarcinoma cell line. […] Inhibition experiments with a range of pepducin concentrations (0.1-3 μM) were conducted. […] The […] (SEQ ID NO:30) peptide gave a rapid and transient ERK1/2 phosphorylation signal that peaked at 5-15 min after stimulation. […] To determine the specificity of the PAR1 pepducin inhibitors, their effects on the closely related PAR2 and PAR4 receptors were also tested.

[2] = test system: VEGF-A production; experiment: Thrombin-dependent VEGF-A production in A549 cells (ELISA); assay type: cell-based, human; details: A549, 18 hours thrombin treatment
Method: (§1) FIG. 13 illustrates that monotherapy with PAR1-i3 pepducins inhibits tumor progression of A549 xenografts. (A) and (B): A549 mice treated with vehicle, P1pal-7, P1pal-i1-11, P1pal-10S, X1/2-i1, X1/2-i3, or Avastin. Each time point represents the mean±SE. (C): Final tumor volume at the completion of the experiment was calculated as a percentage of untreated vehicle control. (D): Serum-starved A549 adenocarcinoma cells were pretreated with P1pal-7, P1pal-10S, P1pal-i1-11, vehicle, or PD98059 and stimulated with thrombin. VEGF production was assessed by enzyme-linked immunosorbent assay. Data are expressed as mean±SD (*P<0.05, **P<0.01).
Because the i3-based P1pal-7 pepducin had similar efficacy as Avastin in suppressing lung tumor growth of A549 xenografts, VEGF-A production was measured in the A549 tumor cells after 18 hours thrombin treatment. […] Unlike in ovarian cancer, no increase was found in PAR1-mediated IL-8 production in A549 cells, consistent with the observed lack of efficacy of CXCR1/2 pepducins in the A549 xenograft models. These xenograft data provide support for the role of a novel PAR1-ERK1/2-VEGF paracrine pathway that is an effective therapeutic target in the A549 adenocarcinoma lung cancer model.

[3] = Pharmacokinetics of PAR1 pepducins in CF-1 mice, plasma LC/MS/MS; assay type: in vivo, mouse; details: 10 mg/kg s.c.
Method: FIG. 14 illustrates pharmacokinetics of PAR1 pepducins. (A): CF-1 mice were injected subcutaneously with P1pal-7 (3 mg/kg, open circles), P1pal-7 (10 mg/kg, closed circles), P1pal-10S (10 mg/kg, gray circles), or P1pal-i1-11 (10 mg/kg, open squares) in 20% dimethyl sulfoxide and blood was collected at indicated time points (n=3). Pepducin levels in plasma were quantified with LC/MS/MS. (B): Daily (D1 to D6) plasma levels of P1pal-7 after subcutaneous injection of 10 mg/kg P1pal-7 were measured at 1 hour (open circles) and 24 hours (open squares).
Pharmacokinetics of plasma levels of P1pal-7, P1pal-10S, and P1pal-i1-11 at 30 minutes, and at 1, 2, 4, 6, 8, and 16 hours was measured by LC/MS/MS to determine steady-state pepducin drug levels and the rate of elimination from mice. Subcutaneous injections of P1pal-7 (3 mg/kg or 10 mg/kg) into wild-type CF-1 mice (25 to 30 g) was followed by blood collection at various time points from the vena cava. […] Residual P1pal-7 levels were 10 nmol/L at the 16-hour time point. After the 4-hour plateau, the elimination rate was linear from 4 to 16 hours. The peak plasma level of 3 mg/kg P1pal-7 reached 0.6 μmol/L at 2 hours and elimination was linear between 2 hours and 16 hours. P1pal-10S (10 mg/kg) gave similar peak plasma level of 1.0 μmol/L as P1pal-7 (10 mg/kg) at 1 hour.
Lastly, the peak plasma level of P1pal-7 (10 mg/kg) was measured before and 1 hour after once-daily subcutaneous injection over 6 days to determine whether the peak plasma levels were consistent on daily administration.

[4] = test system: A549, HOP62, and HOP92 lung carcinoma cell lines; experiment: Cytotoxicity/cell viability of lung carcinoma cells (MIT assay); assay type: cell-based, human; details: 3-day period
[5] = test system: A549 xenografts; assay type: in vivo, mouse
Method: as §1
PAR1 expression level is correlated with reduced survival of patients with NSCLC. To define the relative importance of PAR1 in lung tumor progression, in vivo mouse models were used. […] An A549 lung adenocarcinoma xenograft model in nude mice was used to evaluate monotherapy with P1pal-7, P1pal-10S, P1pal-i1-11, or the VEGF antagonist Avastin.

[6] = molecular target: T2, PAR2 (Homo sapiens, UniProt P55085); experiment: Agonist | (%)^‡; parameters: SW620 colon adenocarcinoma cells that endogenously express PAR2; endogenous in cells; host or cells: SW620 (in A7 the SW620 cells were additionally stably transfected with PAR1)
[7] = molecular target: T2, PAR2; experiment: Agonist | (%)^†; parameters: SW620 colon adenocarcinoma cells that endogenously express PAR2; endogenous in cells; host or cells: SW620 (in A7 the SW620 cells were additionally stably transfected with PAR1); details: 4 µM
Method: (§2) (A) Agonist and antagonist activity of third intracellular (i3) loop PAR2 pepducins (structure shown on top) using calcium flux assays with SW620 colon adenocarcinoma cells that endogenously express PAR2. Each column of three calcium flux traces corresponds to the i3 pepducin sequence shown above. The top row is the agonist activity of 3-4 μM pepducin and the middle row is the agonist activity of 14-15 μM pepducin. […] Final concentration of DMSO vehicle was 0.2%. […] (C) Agonist activity for each pepducin from (A) is reported as initial velocity of calcium flux at 4 μM pepducin (†), or at 14-15 μM pepducin (‡).

[8] = molecular target: T2, PAR2; experiment: Antagonist | (% inhibition); parameters: SW620 colon adenocarcinoma cells that endogenously express PAR2; endogenous in cells; host or cells: SW620 (in A7 the SW620 cells were additionally stably transfected with PAR1); details: 6 µM
Method: as §2

[9] = molecular target: T2, PAR2; experiment: Calcium flux screen for PAR2 pepducin agonist and antagonist activity in SW620 cells; assay type: cell-based; parameters: SW620 colon adenocarcinoma cells that endogenously express PAR2; endogenous in cells; host or cells: SW620 (in A7 the SW620 cells were additionally stably transfected with PAR1); details: for Antagonist activity (inhibition of SLIGRL calcium flux, area under the curve): 6 μM pepducin, 1 min pretreatment, against 100 μM SLIGRL; for Agonist activity (calcium flux): 3-4 μM and 14-15 μM pepducin
Method: as §2

Compound: CCCCCCCCCCCCCCCC(=O)N[C@@H](CC(N)=O)C(=O)N[C@@H](CCCNC(=N)N)C(=O)N[C@@H](CO)C(=O)N[C@@H](CCCCN)C(=O)N[C@@H](CCCCN)C(=O)N[C@@H](CO)C(=O)N[C@@H](CO)C(=O)N[C@@H](C)C(=O)N[C@@H](CC(C)C)C(=O)N[C@@H](Cc1ccccc1)C(N)=O [P1pal-10S] (Palmitoyl-NRSKKSSALF-NH2)
- Effect on thrombin-induced ERK1/2 phosphorylation [1]: complete inhibition
- Effect on thrombin-dependent VEGF-A production [2]: partially blocked
- Clearance / plasma half-life in words [3]: rapid clearance after 1 hour
- Tmax ([3]; CF-1, mouse, plasma, sc, read-out: Time of peak plasma level): 1 h
- Cmax ([3]; mouse, plasma, sc, CF-1 mice, read-out: Peak plasma level): 1000 nM
- Sensitivity of A549 cells (cytotoxicity) [4]: most sensitive
- Inhibition of tumor progression/growth (final tumor volume vs vehicle) ([5]; mouse, in vivo): 40%

Compound: COc1cccc(-c2cc(=O)c3ccccc3o2)c1N [PD98059, reference compound]
- Effect on thrombin-dependent VEGF-A production [2]: could suppress

Compound: Avastin: VEGF antibody; VEGF antagonist [reference compound]
- Inhibition of tumor progression/growth (final tumor volume vs vehicle) ([5]; monotherapy, nude mice): 75%

Compound: P2pal-14GF: N-terminally truncated palmitoylated PAR2 pepducin, M274 to G and K287 to F; SEQ ID NO:23 (Palmitoyl-GDENSEKKRKRAIF-NH2) [listing 1 of 2 here]
- Agonist | (%)^‡ [6]: 8%
- Agonist | (%)^† [7]: 3%
- Antagonist | (% inhibition) [8]: 0 % inhibition

Compound: P2pal-14GF: N-terminally truncated palmitoylated PAR2 pepducin, M274 to G and K287 to F; SEQ ID NO:23 (Palmitoyl-GDENSEKKRKRAIF-NH2) [listing 2 of 2 here]
- Antagonist activity (inhibition of SLIGRL calcium flux, area under the curve) [9]: no significant agonist or any detectable antagonist activity
- Agonist activity (calcium flux) [9]: no significant agonist

Compound: P2pal-18F: palmitoylated PAR2 pepducin, K287 to F, first three residues (R267, M268, L269) deleted; SEQ ID NO:19 (Palmitoyl-RSSAMDENSEKKRKRAIF-NH2) [listing 1 of 2 here]
- Agonist | (%)^‡ [6]: 35%
- Agonist | (%)^† [7]: 5%
- Antagonist | (% inhibition) [8]: 0 % inhibition

Compound: P2pal-18F: palmitoylated PAR2 pepducin, K287 to F, first three residues (R267, M268, L269) deleted; SEQ ID NO:19 (Palmitoyl-RSSAMDENSEKKRKRAIF-NH2) [listing 2 of 2 here]
- Antagonist activity (inhibition of SLIGRL calcium flux, area under the curve) [9]: devoid of antagonist activity
- Agonist activity (calcium flux) [9]: slight decrease in agonist activity at lower concentration

Compound: P2pal-18Q: palmitoylated PAR2 pepducin, R284 replaced by glutamine; SEQ ID NO:22 (Palmitoyl-RSSAMDENSEKKRKQAIK-NH2) [listing 1 of 2 here]
- Agonist | (%)^‡ [6]: 16%

Compound: P2pal-18Q: palmitoylated PAR2 pepducin, R284 replaced by glutamine; SEQ ID NO:22 (Palmitoyl-RSSAMDENSEKKRKQAIK-NH2) [listing 2 of 2 here]
- Agonist activity (calcium flux) [9]: nearly no agonist activity

Compound: P2pal-18SF: palmitoylated PAR2 pepducin, R284 to S and K287 to F; SEQ ID NO:21 (Palmitoyl-RSSAMDENSEKKRKSAIF-NH2) [listing 1 of 2 here]
- Agonist | (%)^‡ [6]: 30%
- Agonist | (%)^† [7]: 8%
- Antagonist | (% inhibition) [8]: 57 % inhibition

Compound: P2pal-18SF: palmitoylated PAR2 pepducin, R284 to S and K287 to F; SEQ ID NO:21 (Palmitoyl-RSSAMDENSEKKRKSAIF-NH2) [listing 2 of 2 here]
- Agonist activity (calcium flux) [9]: restored agonist activity
